The target of this assay is GFP11(×7)-actin (actin fused to a seven-copy array of GFP11). Nature of the assay: split reporter.

“FluoSTEP-AKAR (R-G1–10–FluoSTEP-AKAR; mRuby2-FHA1-PKAsub-GFP1–10)” registered a fold brightness of the GFP channel versus GFP11(×1)-actin above 5 fold. Substance “FluoSTEP-ICUE (mRuby2-Epac1(149 to 881)-GFP1–10)” gave a fold brightness of the GFP channel versus GFP11(×1)-actin of 3.6 fold.
